Target: T1, IRF3 (mouse (endogenous in mouse ESCs)), P70671
T1 chain: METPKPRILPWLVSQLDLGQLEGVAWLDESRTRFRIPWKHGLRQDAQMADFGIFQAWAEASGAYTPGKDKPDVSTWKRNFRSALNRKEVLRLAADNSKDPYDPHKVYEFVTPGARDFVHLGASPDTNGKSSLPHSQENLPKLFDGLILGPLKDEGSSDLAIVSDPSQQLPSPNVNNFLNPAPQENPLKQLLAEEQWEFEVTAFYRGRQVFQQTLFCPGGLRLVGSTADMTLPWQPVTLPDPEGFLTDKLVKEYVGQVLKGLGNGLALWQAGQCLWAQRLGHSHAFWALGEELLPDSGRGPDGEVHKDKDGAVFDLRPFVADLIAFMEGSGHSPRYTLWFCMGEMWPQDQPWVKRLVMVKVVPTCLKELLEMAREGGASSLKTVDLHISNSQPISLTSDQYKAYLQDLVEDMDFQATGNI
Experiment: native gel or EMSA
Settings: remark: other sources report otherwise

B1: IRF3, P70671 1-419 (natural protein)
chain: T1 chain
stoichiometry N: 2

— paper doi:10.1101/2024.02.25.581951
